Results published in the supplement of paper PMC9112550, “Optimization of the antimicrobial peptide Bac7 by deep mutational scanning” (BMC Biology, 2022).

System: Escherichia coli TOP10
Test: shrunken log2 fold change of peptide-encoding DNA abundance (4.5 h post-induction vs induction); higher = less antimicrobial activity (less host growth inhibition)
Conditions: time post-induction: 4.5 h; library: site-saturation at positions 5, 18, 19, 20
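Also: peptides expressed intracellularly from a pBAD plasmid library in pooled LB shake-flask culture, induced with 0.3% L-arabinose, DNA abundance read by NGS, three biological replicates, DESeq2 with apeglm shrinkage.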

Sequence | shrunken log2 fold change
RRIRNRPPRLPRPRPRPFAPPRP | -0.0816
RRIRVRPPRLPRPRPRPNCIPRP | -0.213
RRIRIRPPRLPRPRPRPYQYPRP | -0.19
RRIRNRPPRLPRPRPRPGRTPRP | 0.153
RRIRTRPPRLPRPRPRPEMWPRP | 0.0446
RRIRLRPPRLPRPRPRPTEFPRP | 0.0447
RRIRERPPRLPRPRPRPFKKPRP | -0.0194
RRIRSRPPRLPRPRPRPMTYPRP | 0.132
RRIRHRPPRLPRPRPRPPDCPRP | 0.182
RRIRERPPRLPRPRPRPQQHPRP | -0.301
RRIRERPPRLPRPRPRPYHTPRP | 0.0711
RRIRKRPPRLPRPRPRPHEFPRP | -0.0156
RRIRGRPPRLPRPRPRPTRQPRP | 0.577
RRIRDRPPRLPRPRPRPAPAPRP | 0.661
RRIRERPPRLPRPRPRPTSGPRP | 0.0416
RRIRVRPPRLPRPRPRPIRMPRP | -0.243
RRIRERPPRLPRPRPRPSDCPRP | 0.00151
RRIRTRPPRLPRPRPRPEFMPRP | 0.0647
RRIRIRPPRLPRPRPRPVAQPRP | -0.103
RRIRERPPRLPRPRPRPPIGPRP | -0.144
RRIRWRPPRLPRPRPRPTYPPRP | -0.553
RRIRRRPPRLPRPRPRPTQHPRP | 0.691
RRIRTRPPRLPRPRPRPYLGPRP | -0.00172

Sequence | shrunken log2 fold change
RRIRTRPPRLPRPRPRPPTFPRP | -0.203
RRIRVRPPRLPRPRPRPRKLPRP | -0.0444
RRIRGRPPRLPRPRPRPTATPRP | 3.4
RRIRPRPPRLPRPRPRPFFGPRP | 0.0908
RRIRDRPPRLPRPRPRPLTRPRP | -0.00589
RRIRERPPRLPRPRPRPLDWPRP | -0.0749
RRIRWRPPRLPRPRPRPSFMPRP | -0.304
RRIRLRPPRLPRPRPRPALAPRP | 0.305
RRIRWRPPRLPRPRPRPCHKPRP | -0.0267
RRIRARPPRLPRPRPRPEKHPRP | 0.0578
RRIRFRPPRLPRPRPRPLNGPRP | 0.073
RRIRWRPPRLPRPRPRPNEKPRP | 0.0011
RRIRPRPPRLPRPRPRPDKRPRP | 0.00792
RRIRDRPPRLPRPRPRPCAYPRP | 0.297
RRIRERPPRLPRPRPRPRFWPRP | 0.549
RRIRTRPPRLPRPRPRPIQVPRP | -0.0152
RRIRMRPPRLPRPRPRPYCTPRP | -0.00702
RRIRQRPPRLPRPRPRPFIKPRP | -0.382
RRIRCRPPRLPRPRPRPVKIPRP | 0.108
RRIRERPPRLPRPRPRPTRKPRP | 0.0197
RRIRMRPPRLPRPRPRPELPPRP | 2.29
RRIRCRPPRLPRPRPRPYIEPRP | -1.03
RRIRERPPRLPRPRPRPCGKPRP | -0.00192

Sequence | shrunken log2 fold change
RRIRSRPPRLPRPRPRPSVMPRP | -0.391
RRIRFRPPRLPRPRPRPWARPRP | -0.114
RRIRDRPPRLPRPRPRPTEVPRP | 0.121
RRIRRRPPRLPRPRPRPGHHPRP | -0.139
RRIRKRPPRLPRPRPRPDKPPRP | 0.128
RRIRSRPPRLPRPRPRPWMFPRP | -0.0604
RRIRRRPPRLPRPRPRPHMSPRP | -0.0996
RRIRMRPPRLPRPRPRPCFEPRP | 0.286
RRIRHRPPRLPRPRPRPLVAPRP | -0.103
RRIRDRPPRLPRPRPRPVKHPRP | -0.0698
RRIRNRPPRLPRPRPRPKMEPRP | 0.015
RRIRGRPPRLPRPRPRPSRMPRP | 0.22
RRIRDRPPRLPRPRPRPLYWPRP | -0.112
RRIRPRPPRLPRPRPRPRNSPRP | 0.0183
RRIRTRPPRLPRPRPRPAFKPRP | 0.143
RRIRIRPPRLPRPRPRPIWPPRP | 0.155
RRIRKRPPRLPRPRPRPYVWPRP | -0.36
RRIRWRPPRLPRPRPRPQHPPRP | 0.0134
RRIRARPPRLPRPRPRPGAPPRP | 0.703
RRIRGRPPRLPRPRPRPCQVPRP | 0.224
RRIRCRPPRLPRPRPRPNWNPRP | -0.514
RRIRMRPPRLPRPRPRPIYIPRP | -0.156
RRIRPRPPRLPRPRPRPNAFPRP | -0.0225

Sequence | shrunken log2 fold change
RRIRNRPPRLPRPRPRPERPPRP | 0.499
RRIRDRPPRLPRPRPRPCGNPRP | 0.104
RRIRFRPPRLPRPRPRPYDGPRP | -0.18
RRIRKRPPRLPRPRPRPEKKPRP | -0.018
RRIRHRPPRLPRPRPRPITFPRP | -0.0514
RRIRNRPPRLPRPRPRPQACPRP | -0.0265
RRIRSRPPRLPRPRPRPPNMPRP | -0.118
RRIRDRPPRLPRPRPRPSACPRP | 0.294
RRIRIRPPRLPRPRPRPMQMPRP | -0.52
RRIRWRPPRLPRPRPRPEPSPRP | 0.39
RRIRYRPPRLPRPRPRPPPRPRP | 1.5
RRIRSRPPRLPRPRPRPRARPRP | 0.408
RRIRRRPPRLPRPRPRPIYVPRP | -0.114
RRIRFRPPRLPRPRPRPTREPRP | 0.599
RRIRVRPPRLPRPRPRPNSYPRP | -0.309
RRIRIRPPRLPRPRPRPNWFPRP | 0.0822
RRIRWRPPRLPRPRPRPETAPRP | 0.177
RRIRRRPPRLPRPRPRPTKYPRP | -0.198
RRIRDRPPRLPRPRPRPRPHPRP | 0.465
RRIRDRPPRLPRPRPRPHSDPRP | -0.115
RRIRLRPPRLPRPRPRPPWMPRP | 0.167
RRIRQRPPRLPRPRPRPITKPRP | -0.0284
